55 molecules from US20100279930A1 (published 2010) can be followed below.

Where two headings read alike, the source gives them in different places. No end group written: not given here.

Assay [1] deals with T1, human Y4 receptor (human, UniProt P50391 1-375). Description: 125I-PP displacement.
Assay [2] addresses T1, human Y4 receptor. Description: 125I-PP displacement. The source holds these as a separate data set.

As usually defined, the IC50 is the concentration at which inhibition is half-maximal.

T1 sequence (P50391 whole entry): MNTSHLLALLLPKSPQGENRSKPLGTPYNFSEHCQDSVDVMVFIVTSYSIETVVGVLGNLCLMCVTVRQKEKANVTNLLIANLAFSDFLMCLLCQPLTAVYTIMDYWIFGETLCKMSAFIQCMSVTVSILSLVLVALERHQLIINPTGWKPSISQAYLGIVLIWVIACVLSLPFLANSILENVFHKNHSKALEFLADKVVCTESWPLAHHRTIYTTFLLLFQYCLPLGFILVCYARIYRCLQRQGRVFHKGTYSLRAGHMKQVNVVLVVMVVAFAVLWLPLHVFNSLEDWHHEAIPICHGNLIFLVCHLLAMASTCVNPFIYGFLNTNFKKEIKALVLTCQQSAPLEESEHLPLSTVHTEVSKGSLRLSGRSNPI

B1: 7133 (peptide)
chain: PAPLEPVYPGDDATPQEIVHYFIELRRYINTLTRPRY
In the assay with human Y4 receptor [1], B1 displayed an IC50 of 0.173 nM.

B2: 6668 (peptide)
chain: AAPLEPVYPGDNATPEQMAQYAADLRKYINMLTRPRY
B2 came in with an IC50 in the assay with human Y4 receptor [2] of 0.28 nM.

B3: compound of SEQ ID NO:168 (Ala 0, Ala 23 and Lys 30, code 7215) (peptide)
peptide: AAPLEPVYPGDNATPEQMAQYAAALRRYINKLTRPRY
On to B3, for which, in the assay with human Y4 receptor [1], the half-inhibitory concentration (IC50) came out at 0.057 nM.

B4: 7158 (peptide)
chain: AAPLEPVYPGDNATPEQMAHYAAELRRYINTLTRPRY
On to B4, for which the IC50 with human Y4 receptor [1] amounted to 0.146 nM.

B5: 6669 (peptide)
chain: AAPLEPVYPGDNATPEQMAQYAADLRKYINLLTRPRY
Consider B5, for which the IC50 with human Y4 receptor [2] amounted to 0.32 nM. This lies in the sub-nanomolar range.

B6: 6811 (peptide)
chain: AAPLEPFYPGDNATPEQMAQYAAALRRYINLLTRPRY
As for B6, the half-maximal inhibitory concentration (IC50) in the assay with human Y4 receptor [2] came to 0.2 nM.

B7: 6851 (peptide)
chain: APLEPVYPGDNATPEELVKYYIELRRYINMLTRPRY
In the assay with human Y4 receptor [2], B7 returned an IC50 of 0.11 nM.

B8: 6844 (peptide)
chain: APLEPFYPGDNATPEEIVKYYSALRRYINMLTRPRY
In turn, B8 displayed an IC50 in the assay with human Y4 receptor [2] of 0.19 nM.

B9: 7103 (peptide)
chain: APLEPVYPGDNATPEELVKYYSALRHYINMLTRPRY
Molecule B9 returned a half-inhibitory concentration (IC50) in the assay with human Y4 receptor [1] of 0.2 nM.

B10: 6849 (peptide)
chain: APLEPVYPGDNATPEELVKYFIELRRYINMLTRPRY
In turn, B10 came in with a 50% inhibitory concentration (IC50) with human Y4 receptor [2] of 0.15 nM.

B11: 7113 (peptide)
chain: APLEPVYPGDNATPEELVKYYSALRRYINMLTRHRY
In turn, B11 displayed an IC50 with human Y4 receptor [1] of 0.084 nM.

B12: 7105 (peptide)
chain: APLEPVYPGDNATPEELVHYYSALRHYINMLTRPRY
B12 returned a half-inhibitory concentration (IC50) with human Y4 receptor [1] of 0.15 nM.

B13: 6829 (peptide)
chain: APLEPFYPGDNATPEQMAQYAAELRRYINMLTRPRY
B13 had an IC50 in the assay with human Y4 receptor [2] of 0.2 nM.

B14: 6816 (peptide)
chain: APLEPFYPGDDATPQQMARYAAELRRYINMLTRPRY
As to B14, in the assay with human Y4 receptor [2], the IC50 turned out to be 0.15 nM.

B15: 6815 (peptide)
chain: APLEPVYPGDDATPQQMARYAAELRRYINMLTRPRY
In the case of B15, the IC50 in the assay with human Y4 receptor [2] stood at 0.13 nM.

B16: 6819 (peptide)
chain: APLEPEYPGDDATPQQMAQYAAELRRYINMLTRPRY
As to B16, in the assay with human Y4 receptor [2], the IC50 is 0.14 nM.

B17: 6835 (peptide)
chain: APLEPVYPGDNATPEQMAQYAADLRRYINMCTRPRY
As for B17, in the assay with human Y4 receptor [2], the IC50 came to 0.26 nM.

B18: 6812 (peptide)
chain: APLEPVYPGDDATPQQMAQYAAELRRYINLLTRPRY
In the case of B18, the IC50 with human Y4 receptor [2] worked out at 0.24 nM.

B19: 6667 (peptide)
chain: APLEPVYPGDDATPQQMAQYAAEMRRYINMLTRPRY
In turn, B19 returned an IC50 with human Y4 receptor [2] of 0.18 nM.

B20: 6809 (peptide)
chain: APLEPFYPGDNATPEQMAQYAAALRKYINMLTRPRY
Regarding B20, in the assay with human Y4 receptor [2], the IC50 came out at 0.21 nM. This IC50 and that of the molecule before are within 1.5-fold of each other.

B21: 6827 (peptide)
chain: APLEPEYPGDDATPQQMARYAAELRRYINMLTRPRY
In the assay with human Y4 receptor [2], B21 had a concentration for half-maximal inhibition (IC50) of 0.07 nM.

B22: 6828 (peptide)
chain: APLEPFYPGDNATPEQMARYAAELRRYINMLTRPRY
Turning to B22, the IC50 in the assay with human Y4 receptor [2] came out at 0.12 nM.

B23: 6810 (peptide)
chain: APLEPFYPGDNATPEQMAQYAAALRRYINLLTRPRY
Take B23: the IC50 in the assay with human Y4 receptor [2] stood at 0.11 nM. This IC50 and that of the molecule before are within 1.5-fold of each other.

B24: 6823 (peptide)
chain: APLEPVYPGDNATPEQMAQYAAELRRYINMLTRPRY
Consider B24, for which the half-maximal inhibitory concentration (IC50) in the assay with human Y4 receptor [2] was 0.13 nM. This IC50 and that of the molecule before are within 1.5-fold of each other.

B25: compound of SEQ ID NO:167 (code 7214) (peptide)
peptide: APLEPVYPGDNATPEQMAQYAAALRRYINKLTRPRY
Turning to B25, the half-inhibitory concentration (IC50) with human Y4 receptor [1] came to 0.106 nM.

B26: 7160 (peptide)
chain: APLEPVYPGDNATPEQMAHYAAELRRYINMLTRPRY
In the case of B26, the IC50 with human Y4 receptor [1] was determined as 0.15 nM.

B27: 6861 (peptide)
chain: PAPLEPVYPGDNATPEELVKYYSALRRYINMLTRPRY
As for B27, in the assay with human Y4 receptor [2], the half-inhibitory concentration (IC50) stood at 0.1 nM.

B28: 6862 (peptide)
chain: AAPLEPVYPGDNATPEELVKYYSALRRYINMLTRPRY
As to B28, the half-inhibitory concentration (IC50) in the assay with human Y4 receptor [2] turned out to be 0.11 nM.

B29: 7102 (peptide)
chain: GAPLEPVYPGDNATPEELVKYYSALRRYINMLTRPRY
Consider B29, for which, in the assay with human Y4 receptor [1], the IC50 is 0.114 nM.

B30: 7114 (peptide)
chain: PAPLEPVYPGDNATPEELVKYYSALRRYINMLTRHRY
In the assay with human Y4 receptor [1], B30 returned a half-maximal inhibitory concentration (IC50) of 0.166 nM.

B31: 6863 (peptide)
chain: AAPLEPVYPGDNATPEELVKYYSALRRYINMLTRPRY
Take B31: the IC50 in the assay with human Y4 receptor [2] is 0.16 nM. In other words, the sub-nanomolar range.

B32: 6865 (peptide)
chain: PAPLEPVYPGDDATPQQMAQYAAELRRYINMLTRPRY
Consider B32, for which the half-inhibitory concentration (IC50) in the assay with human Y4 receptor [2] came to 0.29 nM.

B33: 7139 (peptide)
chain: HAPLEPVYPGDDATPQQMAHYYSELRRYINMLTRPRY
In the assay with human Y4 receptor [1], B33 had an IC50 of 0.137 nM.

B34: 7144 (peptide)
chain: AAPLEPFYPGDDATPQQMAHYAAELRRYINMLTRPRY
The molecule B34 came in with a 50% inhibitory concentration (IC50) with human Y4 receptor [1] of 0.216 nM.

B35: 7138 (peptide)
chain: AAPLEPVYPGDDATPQQMAHYYSELRRYINMLTRPRY
B35 yielded a 50% inhibitory concentration (IC50) with human Y4 receptor [1] of 0.13 nM.

B36: 7146 (peptide)
chain: HAPLEPFYPGDDATPQQMAHYAAELRRYINMLTRPRY
Molecule B36 showed an IC50 in the assay with human Y4 receptor [1] of 0.149 nM. The IC50 values of the last two molecules are within 1.5-fold of each other.

B37: 7145 (peptide)
chain: PAPLEPFYPGDDATPQQMAHYAAELRRYINMLTRPRY
As for B37, the half-inhibitory concentration (IC50) in the assay with human Y4 receptor [1] amounted to 0.165 nM.

B38: 7150 (peptide)
chain: PAPLEPEYPGDDATPQQMAHYAAELRRYINMLTRPRY
Take B38: in the assay with human Y4 receptor [1], the IC50 turned out to be 0.169 nM.

B39: 6806 (peptide)
chain: YYYAPLEPVYPGDYATPEQRAQYETQLRRYINTLTRPRY
Take B39: in the assay with human Y4 receptor [2], the IC50 stood at 0.19 nM.

B40: 6808 (peptide)
chain: YYYAPLEPVYPGDNATPEQRAQYAADLRRYINTLTRPRY
For B40, the IC50 with human Y4 receptor [2] was found to be 0.15 nM.

B41: 6859 (peptide)
chain: HAPLEPVYPGDNATPEELNHYYASLRRYINMLTRPRY
In the assay with human Y4 receptor [2], B41 gave a half-inhibitory concentration (IC50) of 0.15 nM.

B42: 7110 (peptide)
chain: PAPLEPVYPGDNATPEELVKYYASLRRYINMLTRPRY
On to B42, for which the IC50 with human Y4 receptor [1] amounted to 0.11 nM. That is a sub-nanomolar value.

B43: 6857 (peptide)
chain: HAPLEPVYPGDNATPEELNQYYASLRRYINMLTRPRY
For the molecule B43, the IC50 in the assay with human Y4 receptor [2] was found to be 0.22 nM.

B44: 6840 (peptide)
chain: AAPLEPVYPGDNATPEELNHYYSALRRYINMLTRPRY
B44 displayed an IC50 with human Y4 receptor [2] of 0.17 nM.

B45: compound of SEQ ID NO:62 (code 6659) (peptide)
peptide: APLEPVYPGDNATPEQMAQYAADLRRYINMLTRPHRY
modifications: ends and bridges not checked
With B45, the IC50 in the assay with human Y4 receptor [2] amounted to 0.17 nM.

B46: 6841 (peptide)
chain: APLEPVYPGDDATPEELNHYYSALRRYINMLTRPRY
Take B46: the IC50 with human Y4 receptor [2] amounted to 0.16 nM.

B47: compound of SEQ ID NO:72 (code 6674) (peptide)
peptide: KPLEPVYPGDNATPEELNRYYASLRRYINMLTRPRY
In the case of B47, in the assay with human Y4 receptor [2], the half-inhibitory concentration (IC50) is 0.076 nM.

B48: 7121 (peptide)
chain: APLEPVYPGDNATPEEINRYYSALRRYINMLTRPRY
As to B48, the concentration for half-maximal inhibition (IC50) in the assay with human Y4 receptor [1] was 0.12 nM.

B49: 6673 (peptide)
chain: APLEPVYPGDNATPEELNRYYASLRKYINMLTRPRY
The molecule B49 came in with a half-inhibitory concentration (IC50) with human Y4 receptor [2] of 0.16 nM.

B50: 6839 (peptide)
chain: APLEPVYPGDNATPEELNHYYSALRRYINMLTRPRY
The molecule B50 came in with an IC50 with human Y4 receptor [2] of 0.12 nM. The IC50 values of the last two molecules are within 1.5-fold of each other.

B51: 6803 (peptide)
chain: APLEPMYPGDYATPEQMAQYETQLRRYINTLTRPRY
Turning to B51, the 50% inhibitory concentration (IC50) with human Y4 receptor [2] is 0.2 nM.

B52: 7164 (peptide)
chain: APLEPVYPGDNATPEQNLAHYAAELRRYINMLTRPRY
In the case of B52, the IC50 with human Y4 receptor [1] came to 0.223 nM.

B53: 7143 (peptide)
chain: PAPLEPFYPGDNATPEQMAHYAADLRRYINTLTRPRY
Take B53: in the assay with human Y4 receptor [1], the IC50 was found to be 0.188 nM.

B54: 7159 (peptide)
chain: GAPLEPVYPGDNATPEQMAHYAAELRRYINTLTRPRY
In the assay with human Y4 receptor [1], B54 came in with an IC50 of 0.165 nM.

B55: 7101 (peptide)
chain: PLEPVYPGDNATPEELVKYYSALRRYINMLTRPRY
Consider B55, for which the half-inhibitory concentration (IC50) with human Y4 receptor [1] turned out to be 0.069 nM.
